Laboratory results taken from patent US20230099801A1, “RESTORATION OF T CELL ACTIVITY VIA THE CD39/CD73 AXIS” (INNATE PHARMA, priority 2017, published 2023).
Where a chain is given by its changes, count along the chain named.

How the values were obtained:
[1] = test system: other CD39 mutants of Table 1; assay: Epitope mapping by flow cytometry on the other CD39 mutants of Table 1; format: binding, human
Method: (§1) CD39 mutants were generated by PCR. The sequences amplified were run on agarose gel and purified using the Macherey Nagel PCR Clean-Up Gel Extraction kit (reference 740609). The purified PCR products generated for each mutant were then ligated into an expression vector, with the ClonTech InFusion system. The vectors containing the mutated sequences were prepared as Miniprep and sequenced. After sequencing, the vectors containing the mutated sequences were prepared as Midiprep using the Promega PureYield™ Plasmid Midiprep System. HEK293T cells were grown in DMEM medium (Invitrogen), transfected with vectors using Invitrogen's Lipofectamine 2000 and incubated at 37° C. in a CO2 incubator for 48 hours prior to testing for transgene expression. The targeted amino acid mutations in the table 1 below are shown using numbering of SEQ ID NO: 2.
(§2) In order to define the epitopes of anti-CD39 antibodies, we designed CD39 mutants defined by substitutions of amino acids exposed at the molecular surface over the surface of CD39.
Mutant 5 contains amino acid substitutions at residues Q96, N99, E143 and R147.
(§3) Mutants were transfected in Hek-293T cells, as shown in the table 1, using numbering of SEQ ID NO: 2. Dose-ranges of test antibodies (10-2.5-0.625-0.1563-0.0391-0.0098-0.0024-0.0006 μg/ml) are tested on the 20 generated mutants by flow cytometry.

[2] = biological target: T1, soluble recombinant human CD39 protein (Homo sapiens, UniProt P49961); assay: Inhibition of the enzymatic (ATPase) activity of soluble CD39, Cell Titer Glo; format: biochemical; settings: 400 ng/ml soluble CD39, 20 μM ATP
T1 construct: made in house; host or cells: CHO cells
T1 sequence (P49961 with tags, fused parts or gaps): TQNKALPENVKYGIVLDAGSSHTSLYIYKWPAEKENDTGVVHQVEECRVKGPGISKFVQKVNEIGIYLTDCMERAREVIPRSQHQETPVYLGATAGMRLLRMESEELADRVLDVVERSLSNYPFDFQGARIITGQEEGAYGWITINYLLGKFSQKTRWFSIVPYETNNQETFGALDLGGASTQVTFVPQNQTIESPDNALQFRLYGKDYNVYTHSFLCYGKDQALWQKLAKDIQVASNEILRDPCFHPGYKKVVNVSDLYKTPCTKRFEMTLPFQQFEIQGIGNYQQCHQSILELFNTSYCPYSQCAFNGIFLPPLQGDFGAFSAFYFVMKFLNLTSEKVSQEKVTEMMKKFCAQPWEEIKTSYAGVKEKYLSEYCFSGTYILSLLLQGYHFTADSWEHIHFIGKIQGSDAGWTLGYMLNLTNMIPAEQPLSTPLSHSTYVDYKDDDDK
Method: The ability of an antibody to inhibit soluble recombinant human CD39 protein can be tested by detecting ATP after incubating test antibody with soluble CD39 protein (e.g., the CD39 protein having the amino acid sequence of SEQ ID NO: 5, as produced in Example 1, optionally further comprising a purification tag or other functional or non-functional non-CD39-derived amino acid sequence). See, e.g., Example 1. Briefly, ATP can be quantified using the Cell Titer Glo™ (Promega), in an assay in which dose ranges of test antibody are incubated with soluble recombinant human CD39 protein described in Example 1, for 1 hour at 37° C. 20 μM ATP are added to the plates for 30 additional minutes at 37° C. before addition of CTG reagent. Emitted light is quantified using an Enspire™ luminometer after a short incubation period of 5 min in the dark.
The inhibition by antibodies of the enzymatic activity of soluble CD39 protein produced was evaluated using Cell Titer Glo™ (Promega, reference G7571) that allows assessment of ATP hydrolysis through use of a reagent that generates a luminescent signal proportional to the amount of ATP present. In this way, inhibition of the soluble-CD39-mediated ATP hydrolysis can be assessed. Briefly, dose ranges of anti-CD39 antibodies from 100 μg/ml to 6×10^−3 μg/ml were incubated with 400 ng/ml of soluble recombinant human CD39 protein having the amino acid sequence described in the Methods section (SEQ ID NO: 54), for 1h at 37° C. 20 μM ATP was added to the plates for 30 additional minutes at 37° C. before addition of CTG (Cell Titer Glo) reagent. Emitted light was quantified using an Enspire™ luminometer after a short incubation period of 5 min in the dark. Anti-CD39 antibody efficacy was determined by comparing emitted light in presence of antibody with ATP alone (maximal light emission) and ATP together with soluble CD39 protein (minimal light emission).

CD39 mutant 11 = biological target: T2, CD39 mutant 11 (Homo sapiens, UniProt P49961, DUP378-378/E375A/K376G/L372K/N371K/V377S); assay: Epitope mapping by flow cytometry on Hek-293T cells expressing CD39 mutant 11; format: binding; settings: insertion 377V, V377S (Table 1)
T2 construct: expressed in transfected cells; host or cells: HEK-293T cells
T2 sequence (P49961 with tags, fused parts or gaps N371K/L372K/E375A/K376G/DUP378-378): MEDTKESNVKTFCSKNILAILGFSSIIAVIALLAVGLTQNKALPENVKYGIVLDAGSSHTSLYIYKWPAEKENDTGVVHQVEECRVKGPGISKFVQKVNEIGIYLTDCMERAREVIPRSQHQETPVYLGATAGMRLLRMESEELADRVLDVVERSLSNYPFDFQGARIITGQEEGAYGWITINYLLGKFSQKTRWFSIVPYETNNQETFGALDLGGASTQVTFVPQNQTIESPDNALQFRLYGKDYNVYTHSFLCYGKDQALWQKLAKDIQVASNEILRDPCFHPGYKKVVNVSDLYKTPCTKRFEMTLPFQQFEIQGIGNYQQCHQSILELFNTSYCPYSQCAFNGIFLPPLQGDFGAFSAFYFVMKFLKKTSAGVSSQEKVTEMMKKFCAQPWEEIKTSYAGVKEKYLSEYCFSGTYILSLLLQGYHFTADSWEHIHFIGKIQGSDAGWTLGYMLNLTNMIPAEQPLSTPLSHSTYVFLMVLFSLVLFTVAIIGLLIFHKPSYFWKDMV
Method: as §1, §2, §3

[3] = test system: CD73 mutants having a substitution at residues K97, E125, Q153 and K330; settings: cited from earlier work
[4] = biological target: T3, CD73 mutants having substitutions at residues A99, E129, K133, E134 and A135 (Homo sapiens, UniProt P21589, A135S/A99S/E129A/E134N/K133A); settings: cited from earlier work
T3 sequence (P21589 27-549 A99S/E129A/K133A/E134N/A135S): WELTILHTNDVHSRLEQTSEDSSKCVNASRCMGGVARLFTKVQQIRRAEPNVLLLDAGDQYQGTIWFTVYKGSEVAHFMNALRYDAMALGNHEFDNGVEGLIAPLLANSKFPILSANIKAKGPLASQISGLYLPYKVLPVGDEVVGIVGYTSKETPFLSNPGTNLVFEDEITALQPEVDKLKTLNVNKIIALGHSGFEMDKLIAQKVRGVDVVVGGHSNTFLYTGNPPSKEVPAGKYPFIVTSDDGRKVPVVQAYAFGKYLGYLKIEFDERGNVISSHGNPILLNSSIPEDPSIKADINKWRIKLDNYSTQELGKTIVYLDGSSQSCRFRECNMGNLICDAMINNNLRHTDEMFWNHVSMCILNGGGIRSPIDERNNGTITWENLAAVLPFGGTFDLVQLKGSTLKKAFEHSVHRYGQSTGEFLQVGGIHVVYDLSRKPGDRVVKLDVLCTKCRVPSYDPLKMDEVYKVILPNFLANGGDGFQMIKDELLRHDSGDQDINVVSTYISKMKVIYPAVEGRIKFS

[5] = biological target: T4, CD73 mutants having a substitution at residue K136 (Homo sapiens, UniProt P21589, K136A); settings: cited from earlier work
T4 sequence (P21589 27-549 K136A): T3 sequence (P21589 27-549 A99S/E129A/K133A/E134N/A135S) with S73A, A103E, A107K, N108E, S109A, K110A

B1: I-399: anti-CD39 antibody, VH SEQ ID NO: 30, VL SEQ ID NO: 31 (antibody, listed as Mus musculus, V domains shown)
VH: PVQLQQPGAEVVMPGASVKLSCKASGYTFTSFWMNWMRQRPGQGLEWIGEIDPSDFYTNSNQRFKGKATLTVDKSSSTAYMQLSSLTSEDSAVYFCARGDFGWYFDVWGTGTSVTVSS
VL: EIVLTQSPTTMTSSPGEKITFTCSASSSINSNYLHWYQQKPGFSPKLLIYRTSNLASGVPTRFSGSGSGTSYSLTIGTMEAEDVATYYCQQGSSLPRTFGGGTKLEIK
binding to any other mutant of the 20 CD39 mutants [1]: without loss of binding
inhibition of the enzymatic (ATPase) activity of soluble CD39 protein [2]: showed inhibition
binding to cells expressing mutant 11 of CD39 (CD39 mutant 11): loss of binding

B2: 3C12: anti-CD73 antibody, VH and VL of SEQ ID NOS: 44 and 45 (antibody, listed as Mus musculus, V domains shown)
VH: QIQLQQSGPELVKPGASVKVSCKASGYAFASYNMNWVKQSHGKSLDWIGYIDPYNGGSSYNLTFKGKATLTVDKSSTTAYMHLNSLTSEDSAVYYCARGYGNYKAWFAYWGQGTLVTVSAASTKGP
VL: DVVMTQTPKFLLVSAGDRVTITCKASQSVSNDVAWYQQKPGQSPKLLIYYASTRYTGVPDRFTGSGYGTDFTFTISTVQAEDLAVYFCQQDYSSLTFGAGTKLELKRTVAAP
binding to CD73 mutants having a substitution at residues K97, E125, Q153 and K330 [3]: lose binding
binding to CD73 mutants having substitutions at residues A99, E129, K133, E134 and A135 [4]: lose binding
binding to CD73 mutants having a substitution at residue K136 [5]: lose binding

B3: 8C7: anti-CD73 antibody, VH and VL of SEQ ID NOS: 42 and 43 (antibody, listed as Mus musculus, V domains shown)
VH: B2 VH with Q1E, I2V
VL: B2 VL with D1S, V2I, Q6P
binding to CD73 mutants having a substitution at residues K97, E125, Q153 and K330 [3]: lose binding
binding to CD73 mutants having substitutions at residues A99, E129, K133, E134 and A135 [4]: lose binding
binding to CD73 mutants having a substitution at residue K136 [5]: lose binding

B4: 11E1: anti-CD73 antibody, VH and VL of SEQ ID NOS: 40 and 41 (antibody, listed as Mus musculus, V domains shown)
VH: EIQLQQSGPELVKPGASVKVSCKASGYAFTSYNMYWVKQSHGKSLEWIGYIDPYNGGTSYNQKFKGKATLTVDKSSSTAYMHLNSLTSEDSAVYYCARGYGNYKAWFAYWGQGTLVTVSA
VL: DAVMTQTPKFLLVSAGDRVTITCKASQSVTNDVAWYQQKPGQSPKLLIYYASNRYTGVPDRFTGSGYGTDFTFTISTVQAEDLAVYFCQQDYSSLTFGAGTKLELK
binding to CD73 mutants having a substitution at residues K97, E125, Q153 and K330 [3]: lose binding
binding to CD73 mutants having substitutions at residues A99, E129, K133, E134 and A135 [4]: lose binding
binding to CD73 mutants having a substitution at residue K136 [5]: lose binding

B5: 6E1: anti-CD73 antibody, VH and VL of SEQ ID NOS: 3 and 4 (WO2016/055609) (antibody, listed as Mus musculus, V domains shown)
VH: B4 VH with I2F, S44R, T58S, S85N, G101N
VL: B4 VL with D1S, A2I, V78M
binding to CD73 mutants having a substitution at residues K97, E125, Q153 and K330 [3]: lose binding
binding to CD73 mutants having substitutions at residues A99, E129, K133, E134 and A135 [4]: lose binding
binding to CD73 mutants having a substitution at residue K136 [5]: lose binding
